One series deals with T1, insulin (Homo sapiens, UniProt P01308).
T1 construct: purchased Roche 1376497
The experiment in a line: Kinetic analysis using surface plasmon resonance (Biacore T200), immobilized insulin. In kind it is binding. The procedure: Kinetic constants (ka and kd) and affinities (KD) were determined for His6-tagged Y variants using a Biacore T200 instrument (GE Healthcare). Target proteins C4, IL-6 and insulin, respectively, were immobilized in separate flow cells on the carboxylated dextran layer of different CM5 chip surfaces (GE Healthcare). Immobilization was performed using amine coupling chemistry according to the manufacturer's protocol and PBS pH 7.4 supplemented with 0.1 Tween20 (PBST 0.1%) as running buffer. The ligand immobilization levels on the surfaces were 3280-8830 RU for C4, 495-1184 RU for IL-6, and 270-282 RU for insulin. One flow cell surface on each chip was activated and deactivated for use as blank during analyte injections. In the kinetic experiment, PBST 0.1% was used as running buffer at a flow rate of 30 μl/min. The analytes, i.e. Y variants, were each diluted in PBST 0.1 buffer at concentrations of 1000, 500, 100, 50 and 10 nM and injected for 5 min, followed by dissociation in running buffer for 3 min. After dissociation, the surfaces were regenerated with one injection of 30 μl 10 mM HCl. Kinetic constants were calculated from the sensorgrams using the Langmuir 1:1 model of Biacore T200 Evaluation software 2.0 (GE Healthcare).
(§1) Produced Y variants were subjected to CD and SPR analyses according to the methods described in Example 1.
(§2) The Y variants were cloned, produced and characterized according to the general methods described in Example 1. Produced Y variants with point mutations and/or N-terminal or C-terminal extensions were subjected to CD and SPR analyses as described in Example 1.
(§3) Produced Y variants were subjected to CD and SPR analyses according to the methods described in Example 1. In addition, CD spectra of selected IL-6 binding variants were also recorded at 60, 70, 80 and 90° C.
(§4) The Y variants were cloned, produced and characterized according to the general methods described in Example 1. Produced Y variants with point mutations were subjected to CD and SPR analyses as described in Example 1. In addition, CD spectra of the IL-6 binding variants were also recorded at 60, 70, 80 and 90° C.
In general terms: Surface plasmon resonance follows binding to a sensor surface in real time, without labels.

Series [1] in a line: Circular dichroism spectroscopy analysis (CD spectra, variable temperature measurement, refolding). In kind it is physicochemical. The procedure: The respective Y variant was diluted to 0.5 mg/ml in PBS. A CD spectrum at 250-195 nm was obtained at 20° C. In addition, a variable temperature measurement (VTM) was performed to determine the melting temperature (Tm). In the VTM, absorbance was measured at 221 nm while the temperature was raised from 20° C. to 90° C. with a temperature gradient of 5° C./min. A new CD spectrum was obtained at 20° C. after the heating procedure, in order to study the refolding ability of the Y variants. The CD measurements were performed on a Jasco J-810 spectropolarimeter (Jasco Scandinavia AB) using a cell with an optical path length of 1 mm.
as §1, §2, §3, §4

Series [2] is described as follows: Fraction of soluble product on expression in E. coli, estimated from SDS-PAGE. In kind it is physicochemical. The settings on record: for Est soluble fraction: Table 9, mutation study 5. The procedure:
E. coli T7E2 cells were transformed with plasmids containing the gene fragment of each respective Y variant. The resulting recombinant strains were generally cultivated in media supplemented with 50 μg/ml kanamycin at 30-37° C. in 50 ml scale using the EnPresso protocol (Enpresso GmbH). In order to induce protein expression, isopropyl-β-D-1-thiogalactopyranoside (IPTG) was added to a final concentration of 0.5 mM at an optical density at 600 nm (OD600) of approximately 10. After induction, the cultures were incubated for 16 h. The cells were harvested by centrifugation. Alternatively, the culture was performed at 37° C. in 980 ml of TSB-YE medium (tryptic soy broth 30 g/l supplemented with yeast extract 5 g/l) supplemented with 50 μg/ml kanamycin, and protein expression induced with 0.2 mM IPTG at OD600=2, followed by incubation for 5 h before harvesting of the cells by centrifugation. The total yield as well as the fraction of soluble and insoluble product of the respective Y variant was estimated based on SDS-PAGE analysis.

Where [3] appears, read: Table 3, mutation study 1, MGSSHHHHHHGSS-[Y#####].
[4] abbreviates: Table 4, mutation study 2, MGSSHHHHHHGSS-[Y#####].
Where [5] appears, read: Table 7, MGSSHHHHHHGSS-[Y#####]-A.
[6] abbreviates: Table 7, Ylib002Naive.I selection, MGSSHHHHHHGSS-[Y#####]-A.
Setting [7] is: Table 8, mutation study 4, MGSSHHHHHHGSS-[Y#####].
[8] abbreviates: Table 9, mutation study 5, MGSSHHHHHHGSS-[Y#####]-A.

T1 sequence (P01308 25-54 limits assumed): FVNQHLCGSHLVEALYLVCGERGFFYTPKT
T1 sequence (P01308 90-110 limits assumed): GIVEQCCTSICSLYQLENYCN

In general, Kd refers to the constant that tells how readily two partners part at equilibrium. Regarding “Y00272: insulin binding Y variant, Y00032 with A28G, SEQ ID NO:119 (LAEAKEAAIAELDSKGVGAYQKSFIELGKSVEHVELLKEAILADLP; Engineered insulin binding Y variant)”, the dissociation constant (Kd) with insulin (setting [3]) is 110 nM. Further, the Tm in series [1] (setting [3]) is 34 °C.
Taken in the same sequence, the figures for “Y00274: insulin binding Y variant, Y00032 with E35Q, SEQ ID NO:121 (LAEAKEAAIAELDSKGVGAYQKSFIELAKSVEHVQLLKEAILADLP; Engineered insulin binding Y variant)” were 56 nM and 53 °C.
“Y00275: insulin binding Y variant, Y00032 with E39Q, SEQ ID NO:122 (LAEAKEAAIAELDSKGVGAYQKSFIELAKSVEHVELLKQAILADLP; Engineered insulin binding Y variant)” showed a Kd with insulin (setting [3]) of 59 nM. Moreover, the Tm in series [1] (setting [3]) came out at 54 °C.
With “Y00276: insulin binding Y variant, Y00032 with A43K, SEQ ID NO:123 (LAEAKEAAIAELDSKGVGAYQKSFIELAKSVEHVELLKEAILKDLP; Engineered insulin binding Y variant)”, binding with insulin (setting [3]) was characterised by a dissociation constant (Kd) of 76 nM. In addition, in series [1] (setting [3]), the Tm was found to be 50 °C.
“Y00292: insulin binding Y variant, Y00032 with S23K + E35Q + E39Q, SEQ ID NO:124 (LAEAKEAAIAELDSKGVGAYQKKFIELAKSVEHVQLLKQAILADLP; Engineered insulin binding Y variant)” showed a Kd in the series with insulin (setting [4]) of 450 nM. For the same substance, the Tm in series [1] (setting [4]) is 57 °C.
Taken in the same sequence, the figures for “Y00293: insulin binding Y variant, Y00270 with E35Q + E39Q, SEQ ID NO:125 (LAEAKEAAIAELDSKGVGAYQIKFIELAKSVEHVQLLKQAILADLP; Engineered insulin binding Y variant)” were 490 nM and 56 °C.
Taken in the same sequence, the figures for “Y00294: insulin binding Y variant, Y00270 with E35Q + A43K, SEQ ID NO:126 (LAEAKEAAIAELDSKGVGAYQIKFIELAKSVEHVQLLKEAILKDLP; Engineered insulin binding Y variant)” were 490 nM and 54 °C.
Taken in the same sequence, the figures for “Y00295: insulin binding Y variant, Y00270 with E35Q + E39Q + A43K, SEQ ID NO:127 (LAEAKEAAIAELDSKGVGAYQIKFIELAKSVEHVQLLKQAILKDLP; Engineered insulin binding Y variant)” were 580 nM and 52 °C.
With “Y00299: insulin binding Y variant from Ylib002Naive.I, SEQ ID NO:132 (LAEAKEAAIAELDSKGVGAYQIKFIQVAKTVEQVQILKQAILADLPA; Engineered insulin binding Y variant)”, in the series with insulin (setting [5]), the Kd came to 6.5 nM, the ka is 310000 M⁻¹ s⁻¹ and the kd is 0.002 s⁻¹. In addition, the Tm in series [1] (setting [5]) stood at 56 °C. The Estimated soluble fraction in series [2] (setting [6]) is recorded as 75%.
For “Y00356: insulin binding Y variant, SEQ ID NO:140, template of mutation study 4 (LAEAKEAAIAELDSKGVGAKYIKMIQHAHYVEVVQWLKQAILAHLP; Engineered insulin binding Y variant)”, in series [1] (setting [7]), the Tm stood at 57 °C. Moreover, in series [2] (setting [7]), the Estimated soluble fraction was 43%.
“Y02310: C4 binding Y variant from Ylib002Naive.I, SEQ ID NO:36 (LAEAKEAAIAELDSKGVGADLIKKIQYADTVEGVQFWKQEILAWLPA; Engineered C4 binding Y variant)”: the Tm in series [1] (setting [5]) came to 56 °C. Besides, the Estimated soluble fraction in series [2] (setting [6]) is recorded as 100%.
Take “Y02674: insulin binding Y variant, Y00356 with K15Y, SEQ ID NO:146 (LAEAKEAAIAELDSYGVGAKYIKMIQHAHYVEVVQWLKQAILAHLP; Engineered insulin binding Y variant)”: the Tm in series [1] (setting [7]) was determined as 55 °C. The Estimated soluble fraction in series [2] (setting [7]) is listed as 40%.
On to “Y02676: insulin binding Y variant, Y00356 with Q26E, SEQ ID NO:147 (LAEAKEAAIAELDSKGVGAKYIKMIEHAHYVEVVQWLKQAILAHLP; Engineered insulin binding Y variant)”, for which the Tm in series [1] (setting [7]) was 56 °C. Besides, the Estimated soluble fraction in series [2] (setting [7]) is reported as 55%.
On to “Y02683: insulin binding Y variant, Y00356 with I9L, SEQ ID NO:148 (LAEAKEAALAELDSKGVGAKYIKMIQHAHYVEVVQWLKQAILAHLP; Engineered insulin binding Y variant)”, for which the Estimated soluble fraction in series [2] (setting [7]) was 92%.
Turning to “Y02685: C4 binding Y variant, Y00792 with I9L, SEQ ID NO:40 (LAEAKEAALAELDSKGVGADLIKKIQQASSVEGVQFWKQEILAQLPA; Engineered C4 binding Y variant)”, the Tm in series [1] (setting [8]) is 53 °C. Also, the Est soluble fraction in series [2] (MGSSHHHHHHGSS-[Y#####]-A) is 100%.
The like results for “Y02686: C4 binding Y variant, Y00792 with K15Y, SEQ ID NO:41 (LAEAKEAAIAELDSYGVGADLIKKIQQASSVEGVQFWKQEILAQLPA; Engineered C4 binding Y variant)” were, in that order, 59 °C and 100%.
Taken in the same sequence, the figures for “Y02687: C4 binding Y variant, Y00792 with Q26E, SEQ ID NO:42 (LAEAKEAAIAELDSKGVGADLIKKIEQASSVEGVQFWKQEILAQLPA; Engineered C4 binding Y variant)” were 57 °C and 100%.
Taken in the same sequence, the figures for “Y02688: C4 binding Y variant, Y02330 with I9L, SEQ ID NO:43 (LAEAKEAALAELDSKGVGAELIKKIQHAESVEGVQFWKQEILAYLPA; Engineered C4 binding Y variant)” were 50 °C and 100%.
“Y02689: C4 binding Y variant, Y02330 with K15Y, SEQ ID NO:44 (LAEAKEAAIAELDSYGVGAELIKKIQHAESVEGVQFWKQEILAYLPA; Engineered C4 binding Y variant)”: the Tm in series [1] (setting [8]) worked out at 53 °C. Besides, the Est soluble fraction in series [2] (MGSSHHHHHHGSS-[Y#####]-A) is given as 100%.
The like results for “Y02690: C4 binding Y variant, Y02330 with Q26E, SEQ ID NO:45 (LAEAKEAAIAELDSKGVGAELIKKIEHAESVEGVQFWKQEILAYLPA; Engineered C4 binding Y variant)” were, in that order, 53 °C and 100%.
The like results for “Y02691: C4 binding Y variant, Y00792 with K15Y Q26E, SEQ ID NO:46 (LAEAKEAAIAELDSYGVGADLIKKIEQASSVEGVQFWKQEILAQLPA; Engineered C4 binding Y variant)” were, in that order, 58 °C and 100%.
Taken in the same sequence, the figures for “Y02692: C4 binding Y variant, Y02309 with K15Y Q26E, SEQ ID NO:47 (LAEAKEAAIAELDSYGVGADLIKKIEKAESVEGVQFWKQEILATLPA; Engineered C4 binding Y variant)” were 57 °C and 100%.
Consider “Y02693: C4 binding Y variant, Y02330 with K15Y Q26E, SEQ ID NO:48 (LAEAKEAAIAELDSYGVGAELIKKIEHAESVEGVQFWKQEILAYLPA; Engineered C4 binding Y variant)”, for which the Tm in series [1] (setting [8]) was 52 °C. The Est soluble fraction in series [2] (MGSSHHHHHHGSS-[Y#####]-A) was 100%.

Values taken from patent publication US11505576B2, “Polypeptides based on a scaffold” (AFFIBODY AB, priority 2018, dated 2022).
